Changes are numbered by the printed parent chain. Names may count otherwise.
B1: rPoAbf (recombinant α‐L‐arabinofuranosidase from Pleurotus ostreatus) (Pleurotus sp. 'Florida') (protein)
chain: QTVSVSATASHPIPTTLWGQMFEDISHSGDGGLYAELLQNRALQQVTPNTAASLNAWSAINGGQISVVADSVPVSNSLPNSLRFTVPAGRTGQVGFANSGFFGMKIVASSTYKGSFFVKFPTASSFTGNLIVGLRTTSGSTIVSQTVPIRGASTSWQQISVSLTPRTTPPSTDNQFFVTIDGAAASGQTINFAMFSLFPPTFKNRANGMRDDIATALAEMKPKFFRFPGGNNLEGQTVPTRWQWNATIGSLLDRPGRAGDWGYINTDGLGLLEYLLFCEDLGMEPIMAVWAGFALGGTSVAQNGLQPYIQQAIDQINFVIGDPATSAPAARRAALGRAQPFKLTYVEIGNEDFFASDTYTYRWPAFVNALRGAFPNLKFIATSNINSPVLSPNPAQWDHHVYQTPTWFAQNSFFYDDMPRNGVTFFEGEYAAISTNPNDIFGSPANGRLTFSTMQSASGEAAYMIGMERNSDIVFAASYAPLLGHVAGSQWTPNLIAFDTGNVYRSASYFVQKLFSTNMGNEYIPSTLPSRTGTAFWGVTRNTATGEIIIKVSNTVAAQANLTFVLPFANVATSGSLQVLTGAATASNSPTTPSALAPATRTITTGKTFTFAAAGFSVNVITIKAS
B2: rPoAbf (recombinant α‐L‐arabinofuranosidase from Pleurotus ostreatus) (Pleurotus sp. 'Florida'; S160G) (protein)
chain: B1 chain with S140G

Key:
purified protein [1] = substrate: O=[N+]([O-])c1ccc(O[C@@H]2O[C@H](CO)[C@@H](O)[C@H](O)[C@H]2O)cc1; assay: purified protein; settings: citrate phosphate buffer pH 5, 0.1-6 mM substrate
purified protein [2] = substrate: O=[N+]([O-])c1ccc(O[C@@H]2O[C@@H](CO)[C@H](O)[C@H]2O)cc1; assay: purified protein; settings: pH 5.0, 40 °C, 10 min, 0.1-2.0 mM substrate, 40.0 °C

| Protein | Km (purified protein [1]) [µM] | kcat (purified protein [1]) [s⁻¹] | Km (purified protein [2]) [µM] | kcat (purified protein [2]) |
| --- | --- | --- | --- | --- |
| B1 | 4070 ± 150 | 0.183 ± 0.01 | 640 ± 110 | 3,010 ± 145 Min^−1 |
| B2 | 5030 ± 120 | 0.383 ± 0.015 | 890 ± 190 | 2,590 ± 165 Min^−1 |
